The nature of data set [1]: NRF2 level in xenografts, IHC and WB. The following applies: glycan lost; control: NCI-H1299 NRF2-WT xenografts.
Data set [2] can be described thus: H2O2-induced ARE luciferase activity. The following applies: glycan lost; control: NCI-H1299 NRF2-WT cells + H2O2.
The nature of data set [3]: endogenous NRF2 stability by WB, knock-in cells. The conditions noted are these: glycan lost; control: NCI-H1299 NRF2-WT cells.
A short description of data set [4]: CHX chase, Flag-NRF2 remaining; NCI-H1299, HEK293T. The following applies: glycan lost; control: Flag-NRF2WT.
Data set [5] can be described thus: H2O2-induced nuclear translocation, fractionation. The conditions noted are these: glycan lost; control: NCI-H1299 NRF2-WT cells + H2O2.
Data set [6] is described as follows: RT-PCR of NRF2 target genes in xenografts. The following applies: glycan lost; control: NCI-H1299 NRF2-WT xenografts.
Data set [7] is described as follows: xenograft growth under cisplatin 1.5 or 3.0 mg/kg. The conditions noted are these: glycan lost; control: NCI-H1299 NRF2-WT xenografts + cisplatin.
A further data set in a line: cisplatin IC50 in cells. The conditions noted are these: glycan lost; control: NCI-H1299 NRF2-WT cells.
Data set [8] is described as follows: WB of NRF2 after OGT KD or overexpression. The following applies: glycan lost; control: control NCI-H1299 cells.

B1: NRF2: S103A (protein)
parent chain: MMDLELPPPGLPSQQDMDLIDILWRQDIDLGVSREVFDFSQRRKEYELEKQKKLEKERQEQLQKEQEKAFFAQLQLDEETGEFLPIQPAQHIQSETSGSANYSQVAHIPKSDALYFDDCMQLLAQTFPFVDDNEVSSATFQSLVPDIPGHIESPVFIATNQAQSPETSVAQVAPVDLDGMQQDIEQVWEELLSIPELQCLNIENDKLVETTMVPSPEAKLTEVDNYHFYSSIPSMEKEVGNCSPHFLNAFEDSFSSILSTEDPNQLTVNSLNSDATVNTDFGDEFYSAFIAEPSISNSMPSPATLSHSLSELLNGPIDVSDLSLCKAFNQNHPESTAEFNDSDSGISLNTSPSVASPEHSVESSSYGDTLLGLSDSEVEELDSAPGSVKQNGPKTPVHSSGDMVQPLSPSQGQSTHVHDAQCENTPEKELPVSPGHRKTPFTKDKHSSRLEAHLTRDELRAKALHIPFPVEKIINLPVVDFNEMMSKEQFNEAQLALIRDIRRRGKNKVAAQNCRKRKLENIVELEQDLDHLKDEKEKLLKEKGENDKSLHLLKKQLSTLYLEVFSMLRDEDGKPYSPSEYSLQQTRDGNVFLVPKSKKPDVKKN
As to B1, the expression_or_secretion result in data set [1] was “decreases”. Further, the “other: transcriptional activity” value in data set [2] and in data set [6] was “decreases” throughout. Further, the degradation_or_half_life entry in data set [3] and in data set [4] was “decreases” each time. Besides, in [5], the localisation_or_trafficking result was “decreases”. In data set [7], the “other: cisplatin resistance” value is “decreases”. For the same protein, in “cisplatin IC50 in cells”, the “other: cisplatin resistance, IC50” value was “decreases, 19.53 vs 31.83”.

B2: NRF2: S111A (protein)
parent chain: MMDLELPPPGLPSQQDMDLIDILWRQDIDLGVSREVFDFSQRRKEYELEKQKKLEKERQEQLQKEQEKAFFAQLQLDEETGEFLPIQPAQHIQSETSGSANYSQVAHIPKSDALYFDDCMQLLAQTFPFVDDNEVSSATFQSLVPDIPGHIESPVFIATNQAQSPETSVAQVAPVDLDGMQQDIEQVWEELLSIPELQCLNIENDKLVETTMVPSPEAKLTEVDNYHFYSSIPSMEKEVGNCSPHFLNAFEDSFSSILSTEDPNQLTVNSLNSDATVNTDFGDEFYSAFIAEPSISNSMPSPATLSHSLSELLNGPIDVSDLSLCKAFNQNHPESTAEFNDSDSGISLNTSPSVASPEHSVESSSYGDTLLGLSDSEVEELDSAPGSVKQNGPKTPVHSSGDMVQPLSPSQGQSTHVHDAQCENTPEKELPVSPGHRKTPFTKDKHSSRLEAHLTRDELRAKALHIPFPVEKIINLPVVDFNEMMSKEQFNEAQLALIRDIRRRGKNKVAAQNCRKRKLENIVELEQDLDHLKDEKEKLLKEKGENDKSLHLLKKQLSTLYLEVFSMLRDEDGKPYSPSEYSLQQTRDGNVFLVPKSKKPDVKKN
Turning to B2, the degradation_or_half_life entry in [4] is listed as “no change”.

B3: NRF2: T350A (protein)
parent chain: MMDLELPPPGLPSQQDMDLIDILWRQDIDLGVSREVFDFSQRRKEYELEKQKKLEKERQEQLQKEQEKAFFAQLQLDEETGEFLPIQPAQHIQSETSGSANYSQVAHIPKSDALYFDDCMQLLAQTFPFVDDNEVSSATFQSLVPDIPGHIESPVFIATNQAQSPETSVAQVAPVDLDGMQQDIEQVWEELLSIPELQCLNIENDKLVETTMVPSPEAKLTEVDNYHFYSSIPSMEKEVGNCSPHFLNAFEDSFSSILSTEDPNQLTVNSLNSDATVNTDFGDEFYSAFIAEPSISNSMPSPATLSHSLSELLNGPIDVSDLSLCKAFNQNHPESTAEFNDSDSGISLNTSPSVASPEHSVESSSYGDTLLGLSDSEVEELDSAPGSVKQNGPKTPVHSSGDMVQPLSPSQGQSTHVHDAQCENTPEKELPVSPGHRKTPFTKDKHSSRLEAHLTRDELRAKALHIPFPVEKIINLPVVDFNEMMSKEQFNEAQLALIRDIRRRGKNKVAAQNCRKRKLENIVELEQDLDHLKDEKEKLLKEKGENDKSLHLLKKQLSTLYLEVFSMLRDEDGKPYSPSEYSLQQTRDGNVFLVPKSKKPDVKKN
For the protein B3, the degradation_or_half_life entry in [4] was “no change”.

B4: NRF2: S310A (protein)
parent chain: MMDLELPPPGLPSQQDMDLIDILWRQDIDLGVSREVFDFSQRRKEYELEKQKKLEKERQEQLQKEQEKAFFAQLQLDEETGEFLPIQPAQHIQSETSGSANYSQVAHIPKSDALYFDDCMQLLAQTFPFVDDNEVSSATFQSLVPDIPGHIESPVFIATNQAQSPETSVAQVAPVDLDGMQQDIEQVWEELLSIPELQCLNIENDKLVETTMVPSPEAKLTEVDNYHFYSSIPSMEKEVGNCSPHFLNAFEDSFSSILSTEDPNQLTVNSLNSDATVNTDFGDEFYSAFIAEPSISNSMPSPATLSHSLSELLNGPIDVSDLSLCKAFNQNHPESTAEFNDSDSGISLNTSPSVASPEHSVESSSYGDTLLGLSDSEVEELDSAPGSVKQNGPKTPVHSSGDMVQPLSPSQGQSTHVHDAQCENTPEKELPVSPGHRKTPFTKDKHSSRLEAHLTRDELRAKALHIPFPVEKIINLPVVDFNEMMSKEQFNEAQLALIRDIRRRGKNKVAAQNCRKRKLENIVELEQDLDHLKDEKEKLLKEKGENDKSLHLLKKQLSTLYLEVFSMLRDEDGKPYSPSEYSLQQTRDGNVFLVPKSKKPDVKKN
As to B4, in data set [4], the degradation_or_half_life result was “no change”.

B5: NRF2: OGT knockdown (protein)
parent chain: MMDLELPPPGLPSQQDMDLIDILWRQDIDLGVSREVFDFSQRRKEYELEKQKKLEKERQEQLQKEQEKAFFAQLQLDEETGEFLPIQPAQHIQSETSGSANYSQVAHIPKSDALYFDDCMQLLAQTFPFVDDNEVSSATFQSLVPDIPGHIESPVFIATNQAQSPETSVAQVAPVDLDGMQQDIEQVWEELLSIPELQCLNIENDKLVETTMVPSPEAKLTEVDNYHFYSSIPSMEKEVGNCSPHFLNAFEDSFSSILSTEDPNQLTVNSLNSDATVNTDFGDEFYSAFIAEPSISNSMPSPATLSHSLSELLNGPIDVSDLSLCKAFNQNHPESTAEFNDSDSGISLNTSPSVASPEHSVESSSYGDTLLGLSDSEVEELDSAPGSVKQNGPKTPVHSSGDMVQPLSPSQGQSTHVHDAQCENTPEKELPVSPGHRKTPFTKDKHSSRLEAHLTRDELRAKALHIPFPVEKIINLPVVDFNEMMSKEQFNEAQLALIRDIRRRGKNKVAAQNCRKRKLENIVELEQDLDHLKDEKEKLLKEKGENDKSLHLLKKQLSTLYLEVFSMLRDEDGKPYSPSEYSLQQTRDGNVFLVPKSKKPDVKKN
B5: the expression_or_secretion result in data set [8] is “decreases”.

The record behind these values is publication PMC11447106 (Clinical and Translational Medicine, 2024).
